# Laboratory results from the supplement of paper PMC9112550, “Optimization of the antimicrobial peptide Bac7 by deep mutational scanning” (BMC Biology, 2022).
# Tested on: Escherichia coli TOP10
# Assay: shrunken log2 fold change of peptide-encoding DNA abundance (4.5 h post-induction vs induction); higher = less antimicrobial activity (less host growth inhibition)
# Conditions: time post-induction: 4.5 h; library: site-saturation at positions 5, 18, 19, 20
# 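Also: peptides expressed intracellularly from a pBAD plasmid library in pooled LB shake-flask culture, induced with 0.3% L-arabinose, DNA abundance read by NGS, three biological replicates, DESeq2 with apeglm shrinkage.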
row,Sequence,shrunken log2 fold change
1,RRIRGRPPRLPRPRPRPTQHPRP,0.855
2,RRIRGRPPRLPRPRPRPNNGPRP,-0.363
3,RRIRNRPPRLPRPRPRPEEDPRP,0.659
4,RRIRNRPPRLPRPRPRPGMYPRP,-0.242
5,RRIRIRPPRLPRPRPRPKKRPRP,-0.169
6,RRIRPRPPRLPRPRPRPKWQPRP,0.225
7,RRIRIRPPRLPRPRPRPCVDPRP,-0.0909
8,RRIRSRPPRLPRPRPRPMDVPRP,-0.02
9,RRIRLRPPRLPRPRPRPAVFPRP,0.142
10,RRIRQRPPRLPRPRPRPMWCPRP,-0.339
11,RRIRWRPPRLPRPRPRPVHDPRP,0.141
12,RRIRARPPRLPRPRPRPQDPPRP,0.557
13,RRIRSRPPRLPRPRPRPGKSPRP,-0.0274
14,RRIRVRPPRLPRPRPRPNSAPRP,0.198
15,RRIRHRPPRLPRPRPRPQRFPRP,-0.0098
16,RRIRARPPRLPRPRPRPADHPRP,0.0196
17,RRIRDRPPRLPRPRPRPDTPPRP,0.0945
18,RRIRMRPPRLPRPRPRPNCRPRP,-0.135
19,RRIRMRPPRLPRPRPRPIFMPRP,-0.0298
20,RRIRCRPPRLPRPRPRPRTNPRP,0.0761
21,RRIRCRPPRLPRPRPRPPTPPRP,0.776
22,RRIRGRPPRLPRPRPRPPRAPRP,1.25
23,RRIRLRPPRLPRPRPRPVNDPRP,-0.52
24,RRIRTRPPRLPRPRPRPYPKPRP,-0.0976
25,RRIRDRPPRLPRPRPRPYPEPRP,0.0271

row,Sequence,shrunken log2 fold change
1,RRIRARPPRLPRPRPRPSFHPRP,-0.215
2,RRIRGRPPRLPRPRPRPCELPRP,-0.02
3,RRIRARPPRLPRPRPRPDNMPRP,-0.45
4,RRIRIRPPRLPRPRPRPKMRPRP,0.742
5,RRIRKRPPRLPRPRPRPVELPRP,0.111
6,RRIRQRPPRLPRPRPRPAQSPRP,0.29
7,RRIRGRPPRLPRPRPRPHCKPRP,0.0392
8,RRIRTRPPRLPRPRPRPIKKPRP,-0.0742
9,RRIRVRPPRLPRPRPRPFWDPRP,-0.0687
10,RRIRRRPPRLPRPRPRPVMQPRP,0.316
11,RRIRNRPPRLPRPRPRPKREPRP,0.0191
12,RRIRQRPPRLPRPRPRPRGYPRP,-0.00234
13,RRIRGRPPRLPRPRPRPCKWPRP,-0.075
14,RRIRKRPPRLPRPRPRPWDKPRP,-0.0876
15,RRIRERPPRLPRPRPRPVYQPRP,-0.0713
16,RRIRARPPRLPRPRPRPTNVPRP,0.0619
17,RRIRQRPPRLPRPRPRPQDAPRP,-0.253
18,RRIRIRPPRLPRPRPRPMSAPRP,-0.205
19,RRIRIRPPRLPRPRPRPLWTPRP,-0.339
20,RRIRERPPRLPRPRPRPAFVPRP,0.121
21,RRIRARPPRLPRPRPRPTHQPRP,0.528
22,RRIRVRPPRLPRPRPRPDGGPRP,-0.0572
23,RRIRVRPPRLPRPRPRPHQTPRP,-0.443
24,RRIRCRPPRLPRPRPRPKDTPRP,0.382
25,RRIRRRPPRLPRPRPRPTILPRP,-0.0149

row,Sequence,shrunken log2 fold change
1,RRIRKRPPRLPRPRPRPTQRPRP,1.13
2,RRIRHRPPRLPRPRPRPKCHPRP,-0.201
3,RRIRNRPPRLPRPRPRPQYSPRP,-0.232
4,RRIRDRPPRLPRPRPRPHVKPRP,-0.205
5,RRIRKRPPRLPRPRPRPLWTPRP,0.0306
6,RRIRSRPPRLPRPRPRPANYPRP,-0.43
7,RRIRRRPPRLPRPRPRPCHTPRP,-0.24
8,RRIRERPPRLPRPRPRPLPFPRP,-0.688
9,RRIRIRPPRLPRPRPRPDTKPRP,-0.188
10,RRIRWRPPRLPRPRPRPLCEPRP,0.337
11,RRIRDRPPRLPRPRPRPRMCPRP,0.0171
12,RRIRFRPPRLPRPRPRPECFPRP,0.0331
13,RRIRRRPPRLPRPRPRPPTIPRP,0.324
14,RRIRNRPPRLPRPRPRPLNMPRP,-0.636
15,RRIRQRPPRLPRPRPRPLKHPRP,-0.589
16,RRIRRRPPRLPRPRPRPFKQPRP,-0.182
17,RRIRTRPPRLPRPRPRPIEPPRP,-0.0864
18,RRIRLRPPRLPRPRPRPANTPRP,-0.124
19,RRIRYRPPRLPRPRPRPANAPRP,0.00281
20,RRIRTRPPRLPRPRPRPVVMPRP,-0.0861
21,RRIRWRPPRLPRPRPRPWQPPRP,-0.0542
22,RRIRERPPRLPRPRPRPKYKPRP,-0.369
23,RRIRRRPPRLPRPRPRPANDPRP,0.275
24,RRIRPRPPRLPRPRPRPREGPRP,0.891
25,RRIRERPPRLPRPRPRPKPNPRP,0.0803

row,Sequence,shrunken log2 fold change
1,RRIRGRPPRLPRPRPRPFYAPRP,0.0161
2,RRIRTRPPRLPRPRPRPKPSPRP,0.335
3,RRIRNRPPRLPRPRPRPAYYPRP,-0.0433
4,RRIRYRPPRLPRPRPRPGLKPRP,-0.0239
5,RRIRHRPPRLPRPRPRPLTSPRP,-0.246
6,RRIRVRPPRLPRPRPRPHAPPRP,0.26
7,RRIRPRPPRLPRPRPRPVDHPRP,0.0611
8,RRIRIRPPRLPRPRPRPVVHPRP,-0.000671
9,RRIRARPPRLPRPRPRPILDPRP,0.229
10,RRIRLRPPRLPRPRPRPKTVPRP,-0.0699
11,RRIRTRPPRLPRPRPRPQPEPRP,0.0514
12,RRIRIRPPRLPRPRPRPPDSPRP,-0.0582
13,RRIRPRPPRLPRPRPRPNFFPRP,0.323
14,RRIRRRPPRLPRPRPRPIHQPRP,-0.136
15,RRIRTRPPRLPRPRPRPTSGPRP,0.0562
16,RRIRARPPRLPRPRPRPRGMPRP,0.32
17,RRIRPRPPRLPRPRPRPDQLPRP,-0.0341
18,RRIRARPPRLPRPRPRPNQDPRP,0.116
19,RRIRVRPPRLPRPRPRPSLSPRP,-0.303
20,RRIRFRPPRLPRPRPRPLHQPRP,-0.37
21,RRIRIRPPRLPRPRPRPHTFPRP,-1.53
22,RRIRMRPPRLPRPRPRPCSCPRP,0.183
23,RRIRHRPPRLPRPRPRPKMEPRP,-0.00674
24,RRIRDRPPRLPRPRPRPIQIPRP,-0.384
25,RRIRPRPPRLPRPRPRPEMAPRP,0.0664

row,Sequence,shrunken log2 fold change
1,RRIRERPPRLPRPRPRPHLWPRP,2.71
2,RRIRARPPRLPRPRPRPEEPPRP,1.24
3,RRIRSRPPRLPRPRPRPTFWPRP,0.536
4,RRIRMRPPRLPRPRPRPQWIPRP,-0.00285
5,RRIRCRPPRLPRPRPRPHAWPRP,-0.245
6,RRIRKRPPRLPRPRPRPARIPRP,0.0491
7,RRIRRRPPRLPRPRPRPDTLPRP,0.06
8,RRIRVRPPRLPRPRPRPGVVPRP,0.43
9,RRIRWRPPRLPRPRPRPWWHPRP,0.357
10,RRIRYRPPRLPRPRPRPIGCPRP,0.225
11,RRIRVRPPRLPRPRPRPSERPRP,-0.0442
12,RRIRKRPPRLPRPRPRPASGPRP,0.591
13,RRIRSRPPRLPRPRPRPCHHPRP,-0.179
14,RRIRWRPPRLPRPRPRPQLNPRP,0.679
15,RRIRDRPPRLPRPRPRPFTAPRP,-0.128
16,RRIRFRPPRLPRPRPRPCVWPRP,0.0426
17,RRIRIRPPRLPRPRPRPRKVPRP,-0.0904
18,RRIRGRPPRLPRPRPRPHMNPRP,0.298
19,RRIRTRPPRLPRPRPRPKDHPRP,-0.156
20,RRIRERPPRLPRPRPRPFIAPRP,-0.2
21,RRIRFRPPRLPRPRPRPKACPRP,-0.174
22,RRIRCRPPRLPRPRPRPLAQPRP,0.103
23,RRIRYRPPRLPRPRPRPQQPPRP,0.0699
24,RRIRSRPPRLPRPRPRPNNIPRP,-0.564
25,RRIRGRPPRLPRPRPRPEVQPRP,1.71

row,Sequence,shrunken log2 fold change
1,RRIRNRPPRLPRPRPRPKGAPRP,0.476
2,RRIRIRPPRLPRPRPRPKIEPRP,-0.0307
3,RRIRSRPPRLPRPRPRPGGPPRP,0.415
4,RRIRMRPPRLPRPRPRPYTHPRP,-0.174
5,RRIRRRPPRLPRPRPRPADWPRP,0.652
6,RRIRRRPPRLPRPRPRPHLMPRP,0.226
7,RRIRRRPPRLPRPRPRPCQCPRP,0.0262
8,RRIRWRPPRLPRPRPRPHTVPRP,0.00981
9,RRIRWRPPRLPRPRPRPNHDPRP,-0.193
10,RRIRGRPPRLPRPRPRPIEEPRP,0.235
11,RRIRKRPPRLPRPRPRPRFVPRP,0.0638
12,RRIRWRPPRLPRPRPRPQEEPRP,0.0983
13,RRIRMRPPRLPRPRPRPYTRPRP,-0.013
14,RRIRARPPRLPRPRPRPGTHPRP,0.173
15,RRIRARPPRLPRPRPRPQRWPRP,0.172
16,RRIRHRPPRLPRPRPRPVHPPRP,-0.131
17,RRIRSRPPRLPRPRPRPLCPPRP,-0.0602
18,RRIRARPPRLPRPRPRPILPPRP,0.0507
19,RRIRQRPPRLPRPRPRPETDPRP,-0.167
20,RRIRIRPPRLPRPRPRPQSPPRP,0.0218
21,RRIRHRPPRLPRPRPRPALQPRP,0.0339
22,RRIRIRPPRLPRPRPRPAQMPRP,-0.0791
23,RRIRSRPPRLPRPRPRPCVLPRP,-0.247
24,RRIRSRPPRLPRPRPRPNACPRP,0.0406
25,RRIRSRPPRLPRPRPRPRGEPRP,0.754
